Measurements reported in patent publication US9175053.

Biological target: ubiquitylated alpha-synuclein(1-17) model peptide 8 (desulfurized ligation product of synthetic Ub-SR 5 and peptide 7), P37840

B1: recombinant human ubiquitin C-terminal hydrolase L3 (protein)
chain: MEGQRWLPLEANPEVTNQFLKQLGLHPNWQFVDVYGMDPELLSMVPRPVCAVLLLFPITEKYEVFRTEEEEKIKSQGQDVTSSVYFMKQTISNACGTIGLIHAIANNKDKMHFESGSTLKKFLEESVSMSPEERARYLENYDAIRVTHETSAHEGQTEAPSIDEKVDLHFIALVHVDGHLYELDGRKPFPINHGETSDETLLEDAIEVCKKFMERDPDELRFNAIALSAA
  enzymatic cleavage of isopeptide (hydrolysis followed by C-4 analytical RP-HPLC, 12 hours at 37 C): a complete hydrolysis was achieved
